T1: recombinant human His-tagged serglycin (human, UniProt P10124 28-158)
T1 construct: serglycin core protein, human, the tag stands instead of the signal peptide; no GAG chains; numbers count on: the mature protein (1-131); also called Ht-SG; SG core protein; source: bought: ProSpec (produced in Escherichia coli)
T1 sequence (looked up): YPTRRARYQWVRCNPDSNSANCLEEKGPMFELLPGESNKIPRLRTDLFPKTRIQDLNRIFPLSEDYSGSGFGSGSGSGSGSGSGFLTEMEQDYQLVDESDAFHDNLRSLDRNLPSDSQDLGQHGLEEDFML


Assays:
Conditions in all cases: both partners purified
[1] = target: T1, recombinant human His-tagged serglycin; assay: peptide or protein array; 20-mer walks of the MMP-9 FnII module and HPX domain on cellulose, two-residue shift; 10 uL of 1 ng/uL Ht-SG in 10 mL blocking buffer, 1-4 h, room temperature; antibodies against SG
[2] = target: T2, proMMP-9 purified from THP-1 cells (human (endogenous in THP-1), UniProt P14780 20-707); assay: peptide or protein array; 20-mer walk of the SG core protein on cellulose, two-residue shift; 8.8 ul of 11.2 ug/mL proMMP-9 in 10 mL blocking buffer, 1-4 h, room temperature; antibody against MMP-9
T2 construct: matrix metalloprotease-9 proenzyme, human; pre domain cleaved off, the mature proenzyme is 20-707; the preparation holds a small amount of TIMP-1; monomer and reduction-sensitive homomultimer; also called pMMP-9; promatrix metalloprotease-9; source: purified from conditioned medium of PMA-stimulated THP-1 cells (Q-Sepharose pass-through, gelatin-Sepharose)

[3] = target: T3, recombinant proMMP-9 lacking the HPX domain (human, UniProt P14780 20-515); assay: as above
T3 construct: MMP-9 proenzyme, human; stop codon behind the codon for A515; the mature proenzyme starts at 20; also called rpMMP-9ΔHPX; proMMP-9ΔHPX; source: Sf9, baculovirus, purified (gelatin-Sepharose)

[4] = target: T2, proMMP-9 purified from THP-1 cells; assay: as above; remark: listed apart in the source
[5] = target: T4, recombinant full-length proMMP-9 (human, UniProt P14780 20-707); assay: as above
T4 construct: matrix metalloprotease-9 proenzyme, human, full-length; pre domain cleaved off, the mature proenzyme is 20-707; also called rpMMP-9; source: Sf9, baculovirus, purified (gelatin-Sepharose)

T3 sequence (P14780 20-515): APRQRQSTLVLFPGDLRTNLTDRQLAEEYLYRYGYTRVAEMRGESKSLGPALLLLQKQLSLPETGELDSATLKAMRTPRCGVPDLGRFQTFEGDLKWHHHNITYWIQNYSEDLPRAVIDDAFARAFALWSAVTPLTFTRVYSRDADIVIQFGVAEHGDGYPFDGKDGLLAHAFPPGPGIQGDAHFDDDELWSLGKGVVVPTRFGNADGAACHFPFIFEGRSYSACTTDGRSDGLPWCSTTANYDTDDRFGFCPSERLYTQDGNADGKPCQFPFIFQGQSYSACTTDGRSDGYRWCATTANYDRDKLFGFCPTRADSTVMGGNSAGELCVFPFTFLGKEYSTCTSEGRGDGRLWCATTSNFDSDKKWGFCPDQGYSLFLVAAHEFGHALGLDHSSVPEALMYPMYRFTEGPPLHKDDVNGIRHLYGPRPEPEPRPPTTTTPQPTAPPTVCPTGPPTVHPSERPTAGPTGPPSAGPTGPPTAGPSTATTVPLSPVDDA
T2 sequence (P14780 20-707): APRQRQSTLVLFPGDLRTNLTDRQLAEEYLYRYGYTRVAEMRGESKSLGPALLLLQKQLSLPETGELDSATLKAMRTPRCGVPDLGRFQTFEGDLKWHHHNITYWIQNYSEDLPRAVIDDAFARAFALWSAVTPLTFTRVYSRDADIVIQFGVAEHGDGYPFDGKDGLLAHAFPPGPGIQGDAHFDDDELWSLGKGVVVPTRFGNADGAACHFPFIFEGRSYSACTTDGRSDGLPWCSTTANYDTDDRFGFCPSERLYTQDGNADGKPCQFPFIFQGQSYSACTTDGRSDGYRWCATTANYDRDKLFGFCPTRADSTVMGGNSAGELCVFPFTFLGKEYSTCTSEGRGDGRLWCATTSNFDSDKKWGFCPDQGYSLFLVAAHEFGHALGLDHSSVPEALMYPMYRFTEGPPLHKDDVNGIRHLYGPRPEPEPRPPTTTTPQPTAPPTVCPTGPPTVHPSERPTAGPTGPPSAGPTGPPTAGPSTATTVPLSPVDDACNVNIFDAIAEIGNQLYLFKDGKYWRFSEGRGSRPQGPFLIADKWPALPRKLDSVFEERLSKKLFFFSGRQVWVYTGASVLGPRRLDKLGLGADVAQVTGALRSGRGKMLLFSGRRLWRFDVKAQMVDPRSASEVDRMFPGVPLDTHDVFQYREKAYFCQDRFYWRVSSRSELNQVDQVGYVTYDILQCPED

Row | Binder | binding result [1] | also measured
1 | ASVLGPRRLDKLGLGADVAQ (peptide, UniProt P14780 593-612, looked up, MMP-9 HPX domain (F521-D707), spot 37 of the 20-mer walk with two-residue shift; source: synthetic peptide on a cellulose membrane) [HPX peptide 37] | binds | 
2 | AFHDNLRSLDRNLPSDSQDL (peptide, UniProt P10124 128-147, looked up, serglycin core protein, spot 51 of the 20-mer walk with two-residue shift; numbers count on: the mature protein (1-131); source: synthetic peptide on a cellulose membrane) [SG peptide 51] |  | binding result [2]: binds
3 | PKTRIQDLNRIFPLSEDYSG (peptide, UniProt P10124 76-95, looked up, serglycin core protein, spot 25 of the 20-mer walk with two-residue shift; numbers count on: the mature protein (1-131); source: synthetic peptide on a cellulose membrane) [SG peptide 25] |  | binding result [3]: binds; binding result [4]: binds; binding result [5]: binds
4 | YQLVDESDAFHDNLRSLDRN (peptide, UniProt P10124 120-139, looked up, serglycin core protein, spot 47 of the 20-mer walk with two-residue shift; numbers count on: the mature protein (1-131); source: synthetic peptide on a cellulose membrane) [SG peptide 47] |  | binding result [3]: binds; binding result [4]: binds; binding result [5]: binds
5 | VLGPRRLDKLGLGADVAQVT (peptide, UniProt P14780 595-614, looked up, MMP-9 HPX domain (F521-D707), spot 38 of the 20-mer walk with two-residue shift; source: synthetic peptide on a cellulose membrane) [HPX peptide 38] | binds | 
6 | IFQGQSYSACTTDGRSDGYR (peptide, UniProt P14780 293-312, looked up, MMP-9 FnII module (A225-D390), spot 35 of the 20-mer walk with two-residue shift; source: synthetic peptide on a cellulose membrane) [FnII peptide 35] | binds | 
7 | ELNQVDQVGYVTYDILQCPE (peptide, UniProt P14780 687-706, looked up, MMP-9 HPX domain (F521-D707), spot 84 of the 20-mer walk with two-residue shift; source: synthetic peptide on a cellulose membrane) [HPX peptide 84] | binds | 
8 | WCSTTANYDTDDRFGFCPSE (peptide, UniProt P14780 255-274, looked up, MMP-9 FnII module (A225-D390), spot 16 of the 20-mer walk with two-residue shift; source: synthetic peptide on a cellulose membrane) [FnII peptide 16] | binds | 
9 | DDRFGFCPSERLYTQDGNAD (peptide, UniProt P14780 265-284, looked up, MMP-9 FnII module (A225-D390), spot 21 of the 20-mer walk with two-residue shift; source: synthetic peptide on a cellulose membrane) [FnII peptide 21] | binds | 
10 | LIADKWPALPRKLDSVFEER (peptide, UniProt P14780 555-574, looked up, MMP-9 HPX domain (F521-D707), spot 18 of the 20-mer walk with two-residue shift; source: synthetic peptide on a cellulose membrane) [HPX peptide 18] | binds | 
11 | FTFLGKEYSTCTSEGRGDGR (peptide, UniProt P14780 351-370, looked up, MMP-9 FnII module (A225-D390), spot 64 of the 20-mer walk with two-residue shift; source: synthetic peptide on a cellulose membrane) [FnII peptide 64] | binds | 
12 | LFPKTRIQDLNRIFPLSEDY (peptide, UniProt P10124 74-93, looked up, serglycin core protein, spot 24 of the 20-mer walk with two-residue shift; numbers count on: the mature protein (1-131); source: synthetic peptide on a cellulose membrane) [SG peptide 24] |  | binding result [3]: binds; binding result [4]: binds; binding result [5]: binds
13 | IQDLNRIFPLSEDYSGSGFG (peptide, UniProt P10124 80-99, looked up, serglycin core protein, spot 27 of the 20-mer walk with two-residue shift; numbers count on: the mature protein (1-131); source: synthetic peptide on a cellulose membrane) [SG peptide 27] |  | binding result [3]: binds; binding result [4]: binds; binding result [5]: binds
14 | LVDESDAFHDNLRSLDRNLP (peptide, UniProt P10124 122-141, looked up, serglycin core protein, spot 48 of the 20-mer walk with two-residue shift; numbers count on: the mature protein (1-131); source: synthetic peptide on a cellulose membrane) [SG peptide 48] |  | binding result [3]: binds; binding result [4]: binds; binding result [5]: binds

The next lines start with results.

Row | binding result [1] | Binder | also measured
15 | binds | NYDTDDRFGFCPSERLYTQD (peptide, UniProt P14780 261-280, looked up, MMP-9 FnII module (A225-D390), spot 19 of the 20-mer walk with two-residue shift; source: synthetic peptide on a cellulose membrane) [FnII peptide 19] | 
16 | binds | LDTHDVFQYREKAYFCQDRF (peptide, UniProt P14780 659-678, looked up, MMP-9 HPX domain (F521-D707), spot 70 of the 20-mer walk with two-residue shift; source: synthetic peptide on a cellulose membrane) [HPX peptide 70] | 
17 | binds | TANYDTDDRFGFCPSERLYT (peptide, UniProt P14780 259-278, looked up, MMP-9 FnII module (A225-D390), spot 18 of the 20-mer walk with two-residue shift; source: synthetic peptide on a cellulose membrane) [FnII peptide 18] | 
18 | binds | FLGKEYSTCTSEGRGDGRLW (peptide, UniProt P14780 353-372, looked up, MMP-9 FnII module (A225-D390), spot 65 of the 20-mer walk with two-residue shift; source: synthetic peptide on a cellulose membrane) [FnII peptide 65] | 
19 | binds | RFGFCPSERLYTQDGNADGK (peptide, UniProt P14780 267-286, looked up, MMP-9 FnII module (A225-D390), spot 22 of the 20-mer walk with two-residue shift; source: synthetic peptide on a cellulose membrane) [FnII peptide 22] | 
20 | binds | AYFCQDRFYWRVSSRSELNQ (peptide, UniProt P14780 671-690, looked up, MMP-9 HPX domain (F521-D707), spot 76 of the 20-mer walk with two-residue shift; source: synthetic peptide on a cellulose membrane) [HPX peptide 76] | 
21 | binds | SEGRGSRPQGPFLIADKWPA (peptide, UniProt P14780 543-562, looked up, MMP-9 HPX domain (F521-D707), spot 12 of the 20-mer walk with two-residue shift; source: synthetic peptide on a cellulose membrane) [HPX peptide 12] | 
22 | binds | YWRFSEGRGSRPQGPFLIAD (peptide, UniProt P14780 539-558, looked up, MMP-9 HPX domain (F521-D707), spot 10 of the 20-mer walk with two-residue shift; source: synthetic peptide on a cellulose membrane) [HPX peptide 10] | 

From paper PMC7352350, “Molecular Interactions Stabilizing the Promatrix Metalloprotease-9·Serglycin Heteromer” (International Journal of Molecular Sciences, 2020)
